Source: patent publication US20060140970A1, “Proteic binding partners of TCTP and methods of modulating tumor reversion or cell apoptosis” (priority 2003, published 2006)
Like-named read-outs stand apart in the source and are kept apart here.

What was measured:
Arf1-GAP / [D17]ARF1 = Arf1-GAP / [D17]ARF1 (Homo sapiens, UniProt P84077); assay: GTP-GDP exchange activity of Arf1-GAP on [D17]ARF1, tryptophan fluorescence; format: biochemical; settings: 30 uM TCTP, 0.5 uM [D17]ARF1-GDP, 100 uM Arf-GAP; presence vs absence of TCTP
Protocol: Into a buffer containing 1 mM free Mg^2+, 30 uM TCTP and 0.5 uM [D17]ARF1 -GDP were added. The reaction was initiated by the addition of 40 uM GTP and 2 mM EDTA. To stop the reaction, 2 mM MgCl2 was added. The Arf-GAP, at a concentration of 100 uM, was added. The reaction was measured in presence and absence of TCTP. […] In particular, it is shown that TCTP inhibits the GTP-GDP exchange catalyzed by Arf1-GAP, implicating that Arf1 is kept in its active conformation in presence of TCTP.

bovine brain tubulin = assay: In vitro tubulin polymerization assay (absorbance at 340 nm); format: biochemical; settings: 3 μg purified protein, 2 mg/ml tubulin, 32° C.
Protocol: In vitro tubulin polymerization assays. Pure bovine brain tubulin protein was reconstituted at a final concentration of 10 mg/ml in cold G-PEM buffer (80 mM Piperazine-N,N′-bis-[2-ethanesulfonic acid] equisodium salt (PIPES), 0.5 mM magnesium chloride (MgCl2), 1 mM ethylene glycol-bis-(b-amino-ethyl ether)-N,N,N′,N′-tetra-acetic acid (EGTA), 1 mM Guanosine 5′-triphosphate (GTP), pH 6.9). Samples of 2 mg/ml tubulin in G-PEM buffer were incubated either with 3 μg of ovalbumin (negative control), with 3 μg of purified recombinant TCTP protein, or with […] of purified recombinant OP18 protein. Then, the samples were placed in quartz cuvettes and incubated at 32° C. Tubulin polymerization was observed by measuring the absorbance of the solution at 340 nm over time.
Since TCTP exerts tubulin and microtubules binding properties (Gachet et al., J. Cell Sci., 1 12(Pt 8): 1257-1271 (1999)), whether TCTP could directly regulate the microtubule dynamics was investigated. An in vitro tubulin polymerization assay, using purified tubulin, was developed. […] In the presence of 3 μg of purified OP18 from E. Coil, the polymerization of tubulin was abolished.

eEF1A = target: T1, eEF1A (Oryctolagus cuniculus, UniProt P68105); assay: Guanine nucleotide exchange assay on eEF1A (eEF1A-[3H]GDP dissociation); format: biochemical, rabbit
T1 construct: Rabbit liver eEF1A was purified as described in Shalak et al; from tissue; host or cells: rabbit liver
T1 sequence (P68105 1-462): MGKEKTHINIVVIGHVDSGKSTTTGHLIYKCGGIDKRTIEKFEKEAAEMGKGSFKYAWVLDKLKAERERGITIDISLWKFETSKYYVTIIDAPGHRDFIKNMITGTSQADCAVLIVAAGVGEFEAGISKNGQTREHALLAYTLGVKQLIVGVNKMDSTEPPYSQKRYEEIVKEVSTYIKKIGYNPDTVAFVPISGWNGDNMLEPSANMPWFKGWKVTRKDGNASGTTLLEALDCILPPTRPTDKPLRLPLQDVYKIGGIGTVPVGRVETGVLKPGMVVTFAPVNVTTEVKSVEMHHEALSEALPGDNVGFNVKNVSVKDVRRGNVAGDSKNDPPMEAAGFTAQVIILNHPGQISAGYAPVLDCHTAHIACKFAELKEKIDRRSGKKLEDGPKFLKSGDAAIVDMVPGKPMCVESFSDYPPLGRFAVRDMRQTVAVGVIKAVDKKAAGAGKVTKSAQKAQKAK
Protocol: (§1) Guanine nucleotide exchange assay. Rabbit liver eEF1A was purified as described in Shalak et al., Ukr Biokhim Zh, 69: 104-9 (1997), incorporated herein by reference. The guanine nucleotide exchange on eEF1A was monitored as described in Negrutskii et al., J Biol Chem, 274: 4545-50 (1999) and Bec et al., J Biol Chem, 269: 2086-92 (1994), both of which are incorporated herein by reference. The eEF1A-[^3H]GDP complex was prepared following incubation of 4 μM eEF1A with 4 μM [^3H]GDP (Amersham Biosciences; 1500 Ci/mol) in 80 μl of 45 mM Tris-HCl (pH 7.5) containing 0.5 mM DTT, 10 mM magnesium acetate, 100 mM NH4Cl, 1 mg/ml bovine serum albumin and 25% glycerol for 5 minutes at 37° C. The reaction mixture was placed on ice and diluted by addition of 640 μl of ice-cold exchange buffer [20 mM Tris-HCl (pH 7.5), 10 mM magnesium acetate, 50 mM NH4Cl, 10% glycerol]. The exchange reaction was conducted at 0° C. after addition of 160 μl of exchange buffer containing nucleotide and specified exchange factors. Aliquots of 100 μl were taken at times indicated and immediately filtered through nitrocellulose filters (Millipore; pore size 0.45 μm). Filters were washed 3 times with 1 ml of ice-cold washing buffer [20 mM Tris-HCl (pH 7.5), 10 mM magnesium acetate, 100 mM NH4Cl, 0.1 mg/ml bovine serum albumin], dried and counted in a liquid scintillator.
The functional relevance of a TCTP and eEF1A association was further investigated by monitoring the effects of TCTP on the rate of dissociation of GDP from the eEF1A-[^3H]-GDP complex. Whether TCTP preferentially binds to the GDP-bound form of the factor (and pushes the equilibrium toward the formation of eEF1A-GDP) or associates with the nucleotide free form of eEF1A (and displaces the exchange reaction toward the formation of eEF1A) was determined.
This corresponded to a rate of 0.082±0.004 pmol GDP exchanged/min/pmol of eEF1A. In the absence of free GDP in the incubation mixture, the eEF1A-[^3H]-GDP complex remained stable over a period of 40 minutes. Increasing amounts of TCTP (0.2 μM to 3.0 μM) were added in the exchange assay and the rate of dissociation of the eEF1A-[^3H]-GDP complex was monitored in the presence of 150 μM free GDP (FIG. 15A).

[1] = target: T2, eEF1A (eEF1Bαγ-mediated GDP exchange) (Oryctolagus cuniculus, UniProt P68105); assay: eEF1Bαγ-mediated GDP exchange on eEF1A; format: biochemical, rabbit; settings: TCTP at a final concentration of 2 μM
T2 construct: Rabbit liver eEF1A was purified as described in Shalak et al; from tissue; host or cells: rabbit liver (eEF1A only)
T2 sequence (P68105 2-462 limits assumed): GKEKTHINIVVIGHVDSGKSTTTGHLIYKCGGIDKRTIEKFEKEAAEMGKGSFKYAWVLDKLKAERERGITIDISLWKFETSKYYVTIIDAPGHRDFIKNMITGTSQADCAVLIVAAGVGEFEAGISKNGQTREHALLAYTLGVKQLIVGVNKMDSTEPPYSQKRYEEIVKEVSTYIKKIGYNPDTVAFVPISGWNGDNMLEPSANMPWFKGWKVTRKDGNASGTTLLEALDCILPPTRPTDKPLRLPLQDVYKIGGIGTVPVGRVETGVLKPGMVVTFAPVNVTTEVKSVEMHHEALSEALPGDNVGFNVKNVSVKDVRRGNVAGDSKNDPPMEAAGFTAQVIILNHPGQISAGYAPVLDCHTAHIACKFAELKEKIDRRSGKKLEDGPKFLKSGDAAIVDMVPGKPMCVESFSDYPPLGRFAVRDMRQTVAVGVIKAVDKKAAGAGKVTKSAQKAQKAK
Protocol: as §1, with “scintillator. […]” for “scintillator.”

[2] = target: T3, eEF1A (eEF1Bβ-mediated GDP exchange) (Oryctolagus cuniculus, UniProt P68105); assay: eEF1Bβ-mediated GDP exchange on eEF1A; format: biochemical, rabbit; settings: TCTP at a final concentration of 2 μM; simple first-order
T3 construct: Rabbit liver eEF1A was purified as described in Shalak et al; Full-length TCTP, eEF1Bβ and NKTR cDNAs were cloned in-frame into pGEX-6P; GST (N, cleaved yes); made in house; host or cells: eEF1Bβ: E. coli BL21DE3; eEF1A: purified from rabbit liver
T3 sequence (P68105 2-462 limits assumed): T2 sequence (P68105 2-462 limits assumed)
Protocol: as §1, with “scintillator. […]” for “scintillator.”

- GTP-GDP exchange catalyzed by Arf1-GAP (Arf1-GAP / [D17]ARF1): inhibits
- guanine nucleotide exchange activity (eEF1A): devoid of exchange activity
- Kd (eEF1A; 150 μM free GDP, TCTP 0.2 μM to 3.0 μM, saturation kinetics, read-out: apparent dissociation constant Kd (inhibition of GDP exchange on eEF1A)): 1200 ± 200 nM
- binding of nucleotides by the protein itself (eEF1A; TCTP by itself): did not bind nucleotides
- Kd (eEF1A; unlabeled free GTP (150 μM) in the exchange reaction, read-out: apparent Kd of TCTP for the GDP form of eEF1A): 1600 ± 300 nM
Substance: TCTP: purified recombinant TCTP protein, bacterially expressed, GST moiety removed
- polymerization of purified tubulin (bovine brain tubulin): did not appear to affect the polymerization rate
- rate of GDP dissociation (eEF1A; 3 μM TCTP, 150 μM free GDP): 0.026±0.003 pmol GDP exchanged/min/pmol of eEF1A
- rate of GDP dissociation (eEF1A; with TCTP, unlabeled free GTP (150 μM) instead of GDP): 0.024±0.003 pmol GDP exchanged/min/pmol of eEF1A
- initial rate of GDP exchange in the presence of eEF1Bαγ [1]: 0.96 min⁻¹
- initial rate of GDP exchange in the presence of eEF1Bβ [2]: 0.294 min^−1 per pmol of eEF1Bβ
